Experimental data taken from patent US20240092892A1 (BIO THERA SOLUTIONS, published 2024).
Positions count from the first letter of the chain named. Names and notes keep the numbering of the source.

B1: H239H-2a-K-6a (antibody, human IgG1, kappa, V domains shown)
VH: EVQLLESGGGLVQPGGSLRLSCAASGFTFSDYGMHWVRQAPGKGLEWVAYISRGRSTTYSTDTVKGRFTISRDSSKNTLYLQMNSLRAEDTAVYYCARGSYYGNAMDYWGQGTLVTVSS
VL: DIVMTQSPDSLAVSLGERATINCKSSQSLLNSGNQRNYLTWYQQKPGQPPKLLIYWASTRESGVPDRFSGSGSGTDFTLTISSLQAEDVAVYYCQSAYSYPFTFGGGTKLEIKR
notes: Humanized antibody derived from CH239H-2-K-6, human IgG1/kappa constant regions; also called H239H-2a-K-6α
B2: H239H-2b-K-6a (antibody, human IgG1, kappa, V domains shown)
VH: B1 VH with S74N
VL: B1 VL
notes: Humanized antibody derived from CH239H-2-K-6, human IgG1/kappa constant regions; also called H239H-2b-K-6α
B3: IMAB362 (antibody, V domains shown)
VH: QVQLQQPGAELVRPGASVKLSCKASGYTFTSYWINWVKQRPGQGLEWIGNIYPSDSYTNYNQKFKDKATLTVDKSSSTAYMQLSSPTSEDSAVYYCTRSWRGNSFDYWGQGTTLTVSS
VL: DIVMTQSPSSLTVTAGEKVTMSCKSSQSLLNSGNQKNYLTWYQQKPGQPPKLLIYWASTRESGVPDRFTGSGSGTDFTLTISSVQAEDLAVYYCQNDYSYPFTFGSGTKLEIKR

What was measured:
[1] = biological target: T1, human CLDN18.1 (human, UniProt P56856 1-261); assay: flow cytometry on CHO-CLDN18.1 cells
T1 construct: also called CHO-CLDN18.1 cells
T1 sequence (P56856 whole entry): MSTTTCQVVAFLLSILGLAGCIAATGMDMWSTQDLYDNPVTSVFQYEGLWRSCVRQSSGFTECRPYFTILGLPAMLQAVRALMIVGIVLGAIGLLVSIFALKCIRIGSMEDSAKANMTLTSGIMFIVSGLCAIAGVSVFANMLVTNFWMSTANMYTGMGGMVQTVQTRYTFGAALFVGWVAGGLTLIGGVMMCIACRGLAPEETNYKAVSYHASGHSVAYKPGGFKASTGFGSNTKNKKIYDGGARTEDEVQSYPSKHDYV
Procedure: Flow cytometry was used to detect the binding capacity of anti-CLDN18.2 antibodies to cells expressing CLDN18.2, and the specificity of not binding to CLDN18.1 of the antibody was further detected. The experimental procedure overview was as follows: CLDN18.2 positive cells (KATOIII or CHO-CLDN18.2) and negative cells (CHO-CLDN18.1) were collected, washed once with PBS, resuspended in PBS, and plated on a 96-well V-bottom plate (Cat. No. 3897, Costar) at 0.1 million cells/50 μL/well. The antibody was pre-diluted to 333.2 nM with PBS, then diluted 2-fold with 9 gradients, added at 50 μL/well to the cells in the 96-well V-bottom plate described above, and mixed well (final antibody concentrations: 166.6, 83.3, 41.6, 20.8, 10.4, 5.2, 2.6, 1.3, 0.65, and 0.325 nM). The mixture was incubated at 4° C. for 1 h and washed twice with PBS. Then 100 μL of 1:500 diluted goat anti-human IgG-Fc PE fluorescent secondary antibody (Cat. No. 12-4998-82, eBioscience) was added. The mixture was incubated at 4° C. for 1 h, washed twice with PBS, and analyzed with a CytoFLEX flow cytometer (model: AOO-1-1102, Beckman). [0192]

[2] = biological target: human CLDN18.2 (human); assay: cell-based or functional assay

Binder | binding result [1] | ADCC Reporter Bioassay (Jurkat-NFAT-luc-FcγRIIIa effector cells, luciferase) EC50 [2] [pM] | CDC cell killing rate (CCK-8, 5% human serum complement) IC50 [2] [pM]
B1 | no binding |  | 
B2 | no binding | 62.5 | 291
B3 |  | 795 | 5870
